# Reference: the nanobody polyreactivity screen of Harvey et al. (2022)
# Test: yeast display, Sf9 membrane polyspecificity reagent, FACS + sequencing; frameworks hold sequencing errors
# How it was run: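 Nanobodies came from a synthetic yeast display library in Saccharomyces cerevisiae BJ5465, induced with galactose for 36–48 hours and stained for 1 hour at 4 °C with 10% biotinylated, detergent-solubilized Sf9 membrane reagent. Cells were enriched on streptavidin microbeads and then FACS-sorted, with low and high (top ~1%) gates set on anti-HA fluorescence for expression and streptavidin fluorescence for reagent binding. Each polyreactivity label reflects the gate a clone came from. Genes were amplified by colony PCR, sequenced by MiSeq 2 × 250 and filtered by CDR length.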
row,Sequence,polyreactivity (PSR sort gate)
1,LVQLVESGGGLVQAGGSLRLSCAASGSIFPPYAMGWYRQAPGKERELVAARSNGGSTNYAYAVKGRFTISRDNPNYTVYLQMNSLIPEDTAVYYCVARQYYLGWFPYWRIFDYWGQGTQVTVSS,high polyreactivity
2,QVQLVESGGGLVQAGGSLRLSCAASGSPFHRYVMGWYRQAPGKERELVAVINSTGGSTYYADSVKGRFTISRDHAKNTVDLQMNSLKPEDTAVYYCNAVRDWGPSQVYDGMDYWGQGTQVTVSS,low polyreactivity
3,QVQLVESGGGLVQAGGSLRIRCAASGRIFNQYAMGWYRQAPGKERELVASITQRGGRTYYADSVKGRFTISRDNAKNTVYLQMNSLKPEDTAVYYCAKQCYYVTARTGYDYWGQGTQVTVSS,high polyreactivity
4,HVQLVESGGGLVQAGGSLRLSCAASGSTFFWYAMGWYRQATGKERELVAAISKTGGSTYYADSVKGRFTISRDNAQNTVYLQMNSLKPEDTAVYYCNAVRYASKAARSFDYWGQGTQVTVSS,low polyreactivity
5,QVQLVESGGGLVQAGGSLRLSCAASGNTFPAYAMGWYRQAPGKERELVATISWSTGSTNYADSVKGRFTISRDIAKNTVYLQMNSLKPEDTAVYYCNKELYDFKDRNLKAFLLRIFDSWGQGTQVTVSS,low polyreactivity
6,QVQLVESGGGLVEAGGSLRLSCAASGGIFKIYSMGWYIQAPGKERELVAGINWSDTGTYYADSVKGRFTISRDNAKNTVYLQMNSLKPEDTAVYYCAVSGYPVYITYVSYDYDYWGQGTQVNVSS,low polyreactivity
7,QVQLVESGGGLVQAGGSLRLSCAASGITFRGNVMGWYRQAPGKERELVAAISGSSGRTYYADSVKGRFTISRDNAKNTVYLQMYSLKPEDTAVYYCAATRTVRSYSIAPALGYWGQGTQVTVSS,high polyreactivity
8,QVQLVESGVGLVQAGGSLRLSCAASGRTFAIYTMGWYRQAPGKERELVARISIRGGSTYYADSVKGRFTISRDTAKITFYLQLTSLKPEDNAVYYCAAVGYFGGYRYDYWGQGTQVSVSS,high polyreactivity
9,QVQLVESGGGLVQAGGSLRLSCADSGSTFYRYAMGWYRPAPGKERELVAAISKRGGSTYYADSVKGRFTISRDNAKNTVYLQMNSLKPEDTAVYYCAADPFHYGGGDDYWGQGTQVTVSS,high polyreactivity
10,QDQLVESGGGLVQAGGSLRLSCAASGYTFKAYAMVWYRQAPGKERELVDAISRGGRTNYADSVKGRFTISRDNAKNTVYLQMNSLKPEDTAVYYCNTQRQLGVRFYDRSRQGDYWGQGTQVTVSS,high polyreactivity
11,LVQLQESGGGLVQPGGRLRLSCAASGTISPGGYMGWYRQAPGKERELVASINVGGRTNYADSVKGRFTISRDNAKNTVYLQMNSLKPEDNAVSYCAVWGRNRLQLSYWGQGTQVTVSS,low polyreactivity
12,QVQLVESGGGLVQAGGSLRLSCAASGSTFTSNAMGWYRQAPGKERELVASISGSGGRTYYADSVKGRFTISRDNAKNTVYLQMNSLKPEDTAVYYCARRHSVRTVHGYDYWGQGTQVTVSS,low polyreactivity
13,QVQLVESGGGLVQAGGSLRLSCAASGNTLDAYAMGWYRQAPGKERELVAAITSGGSTYYADSVKGRFTISRDNAKNTVYLQMNSLKPEDTAVYYCNADGHPSDPCYDYWGQGTQVTVSS,low polyreactivity
14,QVQLVESGGGLVQAGGSLRLSCAASGITFYRYALGWYRQAPGKEREFVAAISRSGVSTYYADSVKGRFTISRDNAKNTVYLQMNSLKPEDTAVYYCNKVYYPGFGYEGDYWGQGTQVTVSS,high polyreactivity
15,QVQLVESGGGLVQAGGRLRVSCAASGFTFNCYTMGGSRQAPGKERELVAAITWSGGSTYYADSVKGRFTISRDNAKNSVYLQMNSLIPEDTAVYYCAVYPYGSQYYALDYWGQGTQVTVSS,high polyreactivity
16,QVQLVESGGALVQAGGSLRISCAASGLTFKLYTMGWYRQAPGKERELLAAISRSGTRTYYADSVKGRFTISRDNAKNTVYLLMNSLKPEDTADYYCAARTDGYRNNYWGQGTQVTVSS,high polyreactivity
17,QVQLVESGGGLVQAGGSLRLSCAASGRIFRYYAMGWYRQAPGKERELVAAISRRGSSTYYADSVKGRFTISRDNAKNTVYLQMNSLKPEDTAVYYCSAKRQVYQSESTYEYWGQGTQVTVSS,high polyreactivity
18,QVQLQESGGGLVQAGGSLRLSCAASGSIFDGFNMGWNRQAPGKEREFVAAISYGASTYYADSVKGRFTVSRDNAKNCVYLQMNSLKPEDSAVYYCAVYDELYQVLVYWGRGTQVTVSS,low polyreactivity
19,QVQLVESGGGLVQAGGSLRLSCAASGSTFYGYAMGWYRQAPGKERELVAAINWSGGRTYYADSVKGRFTISRDNAKNTVYLQMNSLKPEDTAVYYCAARGRYQPQFDYWGQGTQVTVSS,high polyreactivity
20,QVQLVESGGGLVQAGGSLRLSCAASGRTFSRYAIGWYRQAPGKERELVASITSRGGSTYYADSVKGRFTISRDNAKNTVYLQMNSLKPEDTAVYYCNVKPTYSPRYWEDYWGQGTQVTVSS,high polyreactivity
21,QVQLVESGGGLVQAGGSLRLSCAASGSIFSLYAMGWYRQAPGKERELVTAITSGGRTKYADSVKGRFTISRDNAKNTVYLQMNSLKPEDTAVYYCAARDDSEKRYLTQYAYNYWGQGTQVTVSS,low polyreactivity
22,QVQLVESGGGLVQAGGSLRLSCAASGRTFPWYAMGWYRQAPGKERELVAAISWTGGSTYYADSVKGRFTISRDNAKNTVYLQMNSLKPEDTAVYYCAASPWYLKYEYWGQGTQVTVSS,low polyreactivity

row,Sequence,polyreactivity (PSR sort gate)
1,QVQLVESGGGLVQAGGSLRLTCAASGSIFAKNAMGWYRQAPGKERELVAAIDLNGGSTYYADSVKGRFTISRDNAKNTDYLQMNSLKPEDTAVYYCAVYYGHSSVIRSSPEYDSWGQGTQVTVSS,low polyreactivity
2,QVQLVESGGGLVQAGGSLRLSCAASGSTFQFNAMGWYRPAPGKEREFVAAITSSAGRTYYADSVKGRFTISRDNAKKTVYLQMNSLKPEDTAVYYCATGPYSPPSAGPEYDYWGQGTQVTVSS,high polyreactivity
3,QVKLVESGGGLVQAGGSLRLSCAASGRIFVSKAMGWYRQAPGKERELVAAISKRGASTYYADSVKGRFTISRDKAKNPVYLQINSLKPEDTEVYYCNVVTTGGPNYDYWGQGTQVTVSS,high polyreactivity
4,QVQLVDSGGGLVQAGGSLRLTCAASGSTIYKNTMGWDRQGPGKERELVAAITRGGSTYYADSVKGRVTISRDNAKNTVYLQMNSLKPEDTAVYYCNTLTRHRYGYDYWGQGTQVTVSS,high polyreactivity
5,QVQLVESGGGIVQAGGSLRLRCAASGFTFSRNAMVWYRQAPGKERELVAAITWSGGRTYYADSVKGRFTISRDNAKNTVYLQMNSLKPEDTAVYYCAARKYHLRSAYDYWGQGTKVTVSS,low polyreactivity
6,QVQLVESGGGLVQAGGSLRLSCAASGSIFLKYAMGWYRQAPGKERELVATISRGGSTNYADSVKGRFTISRDNAKNTVYLQMNSLKPEDTAVYYCAAKYGRPYGTYGYKSLLVGDMYYWGQGTQVTVSS,high polyreactivity
7,QVQLVESGGGLVQAGGSLRLSCAASGSTFWVYAMGWYRQAPGKERELVATISRGGSTNYADSVKGRFTISRDNAKNTVYLQMNSLKPEDTAVYYCAAPRFYGYGYEYWGQGTQVTVSS,low polyreactivity
8,QVQLVESGGGLVQAGGSLRLSCAASGNTFDIYAMGWYIQAPGKERELVAAISRRGGSTYYAESVKGRFTISRDNAKNTVYLQLNSLKPEDTAVYYCNTVYATRYDYWGQGTQVTVSS,high polyreactivity
9,QVQLVESGGGLVQAGGRLRLSCAASGRTFAVYDMGWYIQAPGKERELVAAITYGGGRTYYADSVKGRFTISRDYAKNTVYLQMISLKPEDTSVYYCAADYYGTDYDYWGQGTQVTVSS,low polyreactivity
10,QVQLVESGGGLVQAGGSLRLSCAASGSTFYHYAMGWYRQAPGKERELVAAISTSGGRTYYADSVKGRFTISRDNAKNTVYLQMNSLKPEDTAVYYCAARPGSWYPSVPSYNYWGQGTQVTVSS,low polyreactivity
11,QVQLVESGGGLVQAGGRLRISCAASGRIFPYNAMGWYIQAPGKERELVAAINWSGGSTYYADSVKGRFTISRDNAKNTVYLQMNSLKPEDTAVYYCAVKTVRSSSRNYWGQGTQVTVSS,high polyreactivity
12,QVQLVESGGGLVQAGGSLRLSCAASGFIFEYNTMGWYRQAPGKERELVAAISRRGGSTYYADSVKGRFTISRDNAKNTVYLQMKSLKPEDTAVYYCATDPGARVHYPTGDYWGQGTQVTVSS,high polyreactivity
13,QVQLVQSGGGLVQAGGSLRLSCAASGSIFAVYGMGWNRQAPGKERELVASISTGVSTNYADSVKGRFTISRDNAKNTVYLQRHSLKPEDTAVYYCAKTIYKSRVSYGSWGQGTQVTVSS,low polyreactivity
14,QVQLVESGGGLVQAGGSLRLSCAASGSTFNPYTMGWPRQAPGKERELVATITRIGGSTYYADSVKGRFTISRDNAKNTVDLQMNSLKPEDNAVYYCAADHYRSVRWRSDYTYRVNYWGQGTQVTVSS,high polyreactivity
15,QVQLVESGGGLVQAGGSLRLSCAASGSIFSSNAMGWYRQAPGKERELVAAISSSGGSTYYADSVKGRFTISRDNAKNTVYLQKNSLKPEDTAVYYCATGKQVYGHYYWGQGTQVTVSS,low polyreactivity
16,QVQLVESGGGLVQAGGSLRLSCAASGSIFSRYTMAWYRQAPGKERELVARINSSGTSTYYADSVKGRFTISRDNAKNTVFLQMNSLKPEDTAVYYCARTSRHVRYDYWGQGTQVTVSS,low polyreactivity
17,QVQLVESGGGLVQAGGSLRISCAASGSTYYTNTMGWYRQAPGKERELVADINGSGGSTYYADSVKGRITISRDNAKNTVYLQMNSLKPEDTAVYYCAAGSLQVAIRYDYWGQGTQVTVSS,low polyreactivity
18,QDQLVESGGGLDQAGGSLRLSCAASGRIFARYAMGWYRLAPGKERELVAALSRGGSTKYADSVKGRFTISRDNAKNTVYLQLHSLQQEDTAVYYCARQLWGSQYGAYYAGDYWGQVTQVTVSS,low polyreactivity
19,QVQLVDSGGGLVQAGGSLRLSCAASGYIFSANAMGWYRQAPGKERELVAVISWNGDGTYYADSVKGRFTISRDNAKNTVYLQMNSLKAEDTAVYYCAALSYAYRSQSRRYGYRFDYWGQGTQVTVSS,high polyreactivity
20,QVQLVESGGGLVQAGGSLRLSCAASGRIFYSYAMGGYRQAPGQERELVAAIDESDGSTYYADSVKGRFTISRDNATNTVYLQLNSLKPDDTAVYYSAADSLLVLFDYWGQGTQVTVSS,low polyreactivity
21,QVQLVESGGGLVQAGGSLRLSCAASGIIFYLYTKGWYRQAPGKERELVAAITRGGSTYYADSVKGRFTISRDNAKKTVYLQMNSLKPEDTAVYYCAAKHGPGYRRWYDYWGQGTQVTVSS,high polyreactivity
